Measurements published in article PMC10516938, “Conformational dynamics of cohesin/Scc2 loading complex are regulated by Smc3 acetylation and ATP binding” (Nature Communications, 2023).
Changes are numbered by the printed parent chain.

Legend:
Smc3 K1004C E1155Q = molecular target: T1, Smc3 K1004C E1155Q (S. cerevisiae, UniProt P47037 1-1230, K1004C | E1155Q); test: cross-linking; in vivo BMOE cross-link of cysteine pairs in yeast cells arrested in late G1 by non-degradable Sic1(9m); Scc1-PK immunoprecipitated, western blot, band intensities quantified; details: partners not purified
T1 construct: Smc3, S. cerevisiae; also called EQ mutant version of Smc3^K1004C; source: S. cerevisiae W303, ectopically expressed, late G1 arrested cells, whole-cell extract
T1 sequence (looked up): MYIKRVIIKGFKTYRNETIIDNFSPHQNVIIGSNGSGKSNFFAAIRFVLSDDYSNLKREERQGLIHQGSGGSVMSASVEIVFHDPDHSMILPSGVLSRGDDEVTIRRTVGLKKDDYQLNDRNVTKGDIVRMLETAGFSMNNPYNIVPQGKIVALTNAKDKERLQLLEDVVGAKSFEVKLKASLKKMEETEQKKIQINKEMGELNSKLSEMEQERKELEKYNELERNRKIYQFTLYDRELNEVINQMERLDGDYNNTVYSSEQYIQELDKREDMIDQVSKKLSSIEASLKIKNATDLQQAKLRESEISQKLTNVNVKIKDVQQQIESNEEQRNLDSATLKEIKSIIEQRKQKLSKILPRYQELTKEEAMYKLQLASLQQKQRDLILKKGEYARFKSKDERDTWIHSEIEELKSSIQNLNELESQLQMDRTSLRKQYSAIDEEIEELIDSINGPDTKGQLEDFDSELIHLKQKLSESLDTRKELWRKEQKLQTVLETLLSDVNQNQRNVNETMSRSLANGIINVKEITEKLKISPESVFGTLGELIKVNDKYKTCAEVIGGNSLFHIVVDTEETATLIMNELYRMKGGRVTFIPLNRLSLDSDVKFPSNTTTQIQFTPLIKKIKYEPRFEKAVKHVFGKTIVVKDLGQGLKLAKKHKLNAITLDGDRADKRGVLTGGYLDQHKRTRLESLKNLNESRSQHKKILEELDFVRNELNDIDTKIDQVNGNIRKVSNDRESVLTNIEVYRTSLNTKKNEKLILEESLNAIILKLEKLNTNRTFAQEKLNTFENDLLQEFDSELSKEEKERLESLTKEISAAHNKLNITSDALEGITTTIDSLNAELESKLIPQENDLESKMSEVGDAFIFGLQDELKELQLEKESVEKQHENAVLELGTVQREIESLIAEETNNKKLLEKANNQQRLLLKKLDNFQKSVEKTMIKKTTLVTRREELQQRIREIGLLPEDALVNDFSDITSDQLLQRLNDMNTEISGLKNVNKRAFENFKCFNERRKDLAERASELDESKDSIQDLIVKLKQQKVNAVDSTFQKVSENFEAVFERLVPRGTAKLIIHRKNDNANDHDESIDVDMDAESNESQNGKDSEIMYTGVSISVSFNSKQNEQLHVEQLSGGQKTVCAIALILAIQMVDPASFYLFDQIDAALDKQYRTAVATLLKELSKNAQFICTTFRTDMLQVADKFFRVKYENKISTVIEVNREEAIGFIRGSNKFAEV

[1] = molecular target: T2, Smc3^QQ W483R R1008I K1004C (S. cerevisiae, UniProt P47037 1-1230, K112Q | K113Q | W483R | K1004C | R1008I); test: as above; details: partners not purified
T2 construct: Smc3, S. cerevisiae; also called smc3-QQ K1004C with R1008I and W483R; source: S. cerevisiae W303, late G1 arrested cells, whole-cell extract
T2 sequence (looked up): T1 sequence (looked up) with K112Q, K113Q, W483R, R1008I, Q1155E

B1: Scc2 D369C (natural protein, S. cerevisiae, UniProt Q04002 1-1493, looked up)
chain: MSYPGKDKNIPGRIIEALEDLPLSYLVPKDGLAALVNAPMRVSLPFDKTIFTSADDGRDVNINVLGTANSTTSSIKNEAEKERLVFKRPSNFTSSANSVDYVPTNFLEGLSPLAQSVLSTHKGLNDSINIEKKSEIVSRPEAKHKLESVTSNAGNLSFNDNSSNKKTKTSTGVTMTQANLAEQYLNDLKNILDIVGFDQNSAEIGNIEYWLQLPNKKFVLTTNCLTKLQMTIKNITDNPQLSNSIEITWLLRLLDVMVCNIKFSKSSLKMGLDDSMLRYIALLSTIVLFNIFLLGKNDSNLHRESYIMEPVNFLSDLIESLKILTIEYGSLKIEFDTFQEALELLPKYIRNGPFLDDNVTAKLVYIFSCLLMNNDIEATTNIQFQSFWDNVKRISSDILVSLFGSFDQQRGFIIEELLSHIEKLPTKRIQKKLRKVGNQNIYITDFTFTLMSMLENINCYSFCNQMKDIAPENIDLLKNEYKKQEEFLFNIVEHINDTILERFFKNPSALRYVIDNFVQDLLLLISSPQWPVTEKILSSLLKRLLSVYSPSMQVSANIETICLQLIGNIGSTIFDIKCSTRDHEDNNLIKMINYPETLPHFFKSFEECIAYNETIKCRRSATRFLWNLRLGTILILEEYTKDAKEQIITVDNELKKILEQIKDGGLGPELENREADFSTIKLDYFSILHAFELLNLYDPYLKLILSLLAKDKIKLRSTAIKCLSMLASKDKVILSNPMVKETIHRRLNDSSASVKDAILDLVSINSSYFEFYQQINNNYNDDSIMVRKHVLRINEKMYDETNDIVTKVYVIARILMKIEDEEDNIIDMARLILLNRWILKVHEVLDQPEKLKEISSSVLLVMSRVAIMNEKCSQLFDLFLNFYLLNKEAHSKEAYDKITHVLTILTDFLVQKIVELNSDDTNEKNSIVDKQNFLNLLAKFADSTVSFLTKDHITALYPYMVSDEKSDFHYYILQVFRCTFEKLANFKQKFLYDLETTLLSRLPKMNVREIDEAMPLIWSVATHRHDTARVAKACSSCLSHLHPYINKANNEEAAIVVDGKLQRLIYLSTGFARFCFPKPSNDKIAFLQEGETLYEHITKCLLVLSKDKITHVIRRVAVKNLTKLCGNHPKLFNSRHVLHLLDKEFQSDQLDIKLVILESLYDLFLLEERKSVRNTGVNSTLSSNSILKKKLLKTNRVEFANDGVCSALATRFLDNILQLCLLRDLKNSLVAIRLLKLILKFGYTNPSHSIPTVIALFASTSQYIRHVAYELLEDLFEKYETLVFSSLSRGVTKAIHYSIHTDEKYYYKHDHFLSLLEKLCGTGKKNGPKFFKVLKRIMQSYLDDITDLTSTNSSVQKSIFVLCTNISNITFVSQYDLVSLLKTIDLTTDRLKEVIMDEIGDNVSSLSVSEEKLSGIILIQLSLQDLGTYLLHLYGLRDDVLLLDIVEESELKNKQLPAKKPDISKFSAQLENIEQYSSNGKLLTYFRKHVKDT
notes: Scc2, S. cerevisiae; source: S. cerevisiae W303, in vivo, whole-cell extract
fold change of the crosslink against wild-type Smc3 (K1004C) (Smc3 K1004C E1155Q): ~10 fold | crosslink relative to wild type [1]: ~70%
